Source: patent publication US20230067811A1, “MODULATING LYMPHATIC VESSELS IN NEUROLOGICAL DISEASE” (University of Virginia Patent Foundation, priority 2020, published 2023)

B1: VEGF-c: VEGFR3 agonist polypeptide (SEQ ID NO: 1), flow modulator; in Examples 1-3 delivered by AAV1 vector expressing VEGF-c (protein, listed as Homo sapiens)
chain: MHLLGFFSVACSLLAAALLPGPREAPAAAAAFESGLDLSDAEPDAGEATAYASKDLEEQLRSVSSVDELMTVLYPEYWKMYKCQLRKGGWQHNREQANLNSRTEETIKFAAAHYNTEILKSIDNEWRKTQCMPREVCIDVGKEFGVATNTFFKPPCVSVYRCGGCCNSEGLQCMNTSTSYLSKTLFEITVPLSQGPKPVTISFANHTSCRCMSKLDVYRQVHSIIRRSLPATLPQCQAANKTCPTNYMWNNHICRCLAQEDFMFSSDAGDDSTDGFHDICGPNKELDEETCQCVCRAGLRPASCGPHKELDRNSCQCVCKNKLFPSQCGANREFDENTCQCVCKRTCPRNQPLNPGKCACECTESPQKCLLKGKKFHHQTCSCYRRPCTNRQKACEPGFSYSEEVCRCVPSYWKRPQMS

What was measured:
human LECs = assay: Human LECs incubated with Aβ42, bulk RNA-seq; assay type: cell-based; conditions: 100 nM, 24 h, vs scrambled peptide
Method: To determine whether the increased levels of Aβ alone could account for the observed changes in the LEC transcriptome, human LECs were incubated with 100 nM human Aβ1-42 (a monomeric/dimeric preparation) or control scrambled human Aβ1-42 peptide for 24 or 72 h (FIG. 5J).
Cultures of human LECs. […]
Bulk RNA sequencing. […] The mergedfastq files were then chastity filtered to remove low quality bases, trimmed using the trimmomatic software, and mapped to the UCSC […] genome using Salmon (Harrow, J. et al. GENCODE: the reference human genome annotation for The ENCODE Project. Genome Res 22, 1760-1774, (2012); Patro, R., Duggal, G., Love, M. I., Irizarry, R. A. & Kingsford, C. Salmon provides fast and bias-aware quantification of transcript expression. Nat Methods 14, 417-419, (2017)). […] The resulting transcript abundances were read into R and summarized using tximport (Soneson, C., Love, M. I. & Robinson, M. D. Differential analyses for RNA-seq: transcript-level estimates improve gene-level inferences. F1000Res 4, 1521, (2015)). […]

5×FAD mice = assay: Meningeal lymphatic and blood vessel morphology after i.c.m. AAV1-mVEGF-C plus anti-Abeta antibody; assay type: in vivo, mouse; conditions: adult 5×FAD mice, AAV1 vector i.c.m., meningeal whole mounts
Method: Adult 5×FAD mice were treated with a combination of VEGF-c and an antibody that binds amyloid beta (ABETA Mab1) administered into the cisterna magna (i.c.m). After administration of AAV1 vector expressing VEGF-c or eGFP and the antibody according to schematic shown in FIG. 1A, brain and meningeal morphology was observed. Representative images of the meningeal whole-mounts of 5×FAD mice treated with different combinations of mIgG2a or monoclonal anti-amyloid beta antibody (“ABETA Ab”) with AAV1-CMV-eGFP or AAV1-CMV-mVEGF-C are shown in FIG. 1B. Meninges were stained for LYVE-1 and CD31; scale bar, 1 mm; inset, 300 m (FIG. 1B) Measurements of transverse sinus diameter, coverage by LYVE-1negCD31^+ blood vessels, total number of lymphatic branches, transverse sinus lymphatic vessel diameter and coverage by LYVE-1+ lymphatic vessels (See FIGS. 1C-1G). Results in FIGS. 1C-1G are presented as mean±s.e.m.; n=7 in eGFP+mIgG2a, n=6 in eGFP+ABETA Ab, in mVEGF-C+mIgG2a and in mVEGF-C+ABETA Ab; Two-way ANOVA with Sidak's multiple comparison test. In FIGS. 1D and 1G, the units for the Y-axis are percentage of field of view (“% FOV”).
Science 352, 712-716, (2016)) or microhemorrhages in the brain and meninges (Salloway, S. et al. Two phase 3 trials of bapineuzumab in mild-to-moderate Alzheimer's disease. […]

APPswe mice = assay: Brain Aβ plaques in aged APPswe mice after i.c.m. AAV1-mVEGF-C plus anti-Abeta antibody; assay type: in vivo, mouse; conditions: with anti-amyloid beta antibody, vs eGFP vector
Description: Age of APPswe mice and treatment regimen of anti-amyloid beta antibody with AA1 vector expressing VEGF-c or eGFB via i.c.m are shown in FIG. 3A. Results of behavioral tests (open field (OF), novel location recognition (NLR) and contextual fear conditioning (CFC)) are shown in FIGS. 3B-3D. […] Time investigating one of the object location (% of total time investigating objects) in the training trial and time investigating the novel object location (% of total time investigating) in the NLR test are shown in FIG. 3C. Representative images of the brain sections of APPswe mice treated with anti-Abeta antibody and with AAV1-CMV-eGFP or AAV1-CMV-mVEGF-C are shown in FIG. 3E. Brain sections were stained for Aβ and with DAPI; scale bar, 1 mm. FIGS. 3F-3G show plaque density (number of plaques per mm^2), average size (m^2) and coverage (% of brain section) in the cortex and amygdala or in the hippocampus. Results in FIGS. 3B-3D, 3F, and 3G are presented as mean s.e.m.; n=11 per group; Two-tailed unpaired Student's T test.
Intra-cisterna magna and intravenous injections. Mice were anaesthetized by intraperitoneal (i.p.) injection of a mixed solution of ketamine (100 mg/Kg) and xylazine (10 mg/Kg) in saline. […]
Immunohistochemistry, imaging and quantifications. […]

[1] = tested on: meningeal lymphatic vessels; conditions: Example 4 of WO2017/210343; cited from earlier work

Row | Molecule | gene expression in human LECs (human LECs) | lymphatic diameter (5×FAD mice) | number of plaques in the cortex and amygdala (APPswe mice) | number of plaques in the hippocampus (APPswe mice) | diameters of meningeal lymphatic vessels [1]
1 | Aβ1-42: synthetic monomeric/dimeric human amyloid beta 1-42 peptides (Anaspec AS-20276) | Changes in gene expression | – | – | – | –
2 | B1 | – | increased lymphatic diameter | reduced the number of plaques | reduced the number of plaques | increase the diameters of meningeal lymphatic vessels
